B1: BTN3A2 (natural protein)
chain: not shown
notes: BTN3A2, human, codon-optimised synthetic cDNA; Construct details are in the Supplementary Information; source: ExpiHEK293F, transfected; purified within the 3A2 complex (anti-Flag, Strep-Tactin XT, SEC)
B2: BTN2A1 (natural protein, human, UniProt Q7KYR7 29-527, looked up)
chain: QFIVVGPTDPILATVGENTTLRCHLSPEKNAEDMEVRWFRSQFSPAVFVYKGGRERTEEQMEEYRGRTTFVSKDISRGSVALVIHNITAQENGTYRCYFQEGRSYDEAILHLVVAGLGSKPLISMRGHEDGGIRLECISRGWYPKPLTVWRDPYGGVAPALKEVSMPDADGLFMVTTAVIIRDKSVRNMSCSINNTLLGQKKESVIFIPESFMPSVSPCAVALPIIVVILMIPIAVCIYWINKLQKEKKILSGEKEFERETREIALKELEKERVQKEEELQVKEKLQEELRWRRTFLHAVDVVLDPDTAHPDLFLSEDRRSVRRCPFRHLGESVPDNPERFDSQPCVLGRESFASGKHYWEVEVENVIEWTVGVCRDSVERKGEVLLIPQNGFWTLEMHKGQYRAVSSPDRILPLKESLCRVGVFLDYEAGDVSFYNMRDRSHIYTCPRSAFSVPVRPFFRLGCEDSPIFICPALTGANGVTVPEEGLTLHRVGTHQSL
notes: BTN2A1, human, codon-optimised synthetic cDNA; construct details are in the Supplementary Information; also called BTN2A1 homodimer; BTN2A1 dimer; source: ExpiHEK293F, transfected; purified within the 3A2/3A3 complex (anti-Flag, Strep-Tactin XT, SEC)

Experiments:
BTN3A1 = biological target: T1, BTN3A1 (human, UniProt O00481 30-513); experiment: AUC; sedimentation velocity, 40,000 rpm, 20 °C, 25 mM HEPES pH 7.4, 150 mM NaCl, 0.02% GDN, absorbance at 280 nm; no HMBPP (3A2 complex also with 40 μM HMBPP: less of the high-mass species); settings: both partners purified
T1 construct: BTN3A1, human, codon-optimised synthetic cDNA; Construct details are in the Supplementary Information; source: ExpiHEK293F, transfected; purified within the 3A2/3A3 complex (anti-Flag, Strep-Tactin XT, SEC)

[1] = biological target: T2, BTN3A1/BTN3A2 heterodimer (human, UniProt O00481 30-513; P78410 30-334); experiment: as above; settings: both partners purified
T2 construct: BTN3A1, human; synthetic signal peptide fused to the N-terminus; BTN3A2, human; copies: 1 + 1

T1 sequence (O00481 30-513): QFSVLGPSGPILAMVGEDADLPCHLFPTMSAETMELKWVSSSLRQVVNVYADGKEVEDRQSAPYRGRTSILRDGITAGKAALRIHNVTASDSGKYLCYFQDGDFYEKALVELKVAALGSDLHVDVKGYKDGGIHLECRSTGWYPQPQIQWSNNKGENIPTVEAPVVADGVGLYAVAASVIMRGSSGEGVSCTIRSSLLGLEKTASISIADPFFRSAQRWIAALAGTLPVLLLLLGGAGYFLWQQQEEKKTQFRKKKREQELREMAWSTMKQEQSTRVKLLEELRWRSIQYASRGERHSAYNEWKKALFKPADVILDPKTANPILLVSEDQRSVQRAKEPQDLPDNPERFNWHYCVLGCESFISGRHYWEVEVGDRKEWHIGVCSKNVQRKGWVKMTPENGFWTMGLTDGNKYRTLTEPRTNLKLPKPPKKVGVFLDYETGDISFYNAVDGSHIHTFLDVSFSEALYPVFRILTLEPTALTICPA

| Binder | binding result (BTN3A1) | binding result [1] |
| --- | --- | --- |
| B1 | binds | – |
| B2 | – | binds |
